The values below come from PMC9997507.

The experiment deals with ADAM23-Fc (UniProt Q9R1V7). Nature of the experiment: pull-down; as a2 but with co-expressed LGI3 (LGI3V5/His plasmid); secreted proteins precipitated from conditioned medium with Protein A or Ni-NTA beads; Western blot, band densities quantified in triplicate for ADAM23Fc with ADAM23γHis.

For the substance ADAM23γV5/His (domain or fragment), the fold change of the interaction with LGI3 against without LGI3 is 2.5 fold.
